# Reference: patent publication US20240425837A1 (Novo Nordisk, published 2024)
# No end group written: not given here.
# T1: FX activation peptide 12-mer … (SEQ ID NO:727) (human)
# T1 sequence (peptide, C-terminally conjugated to biotin): LLDFNQTQPERG
# T2: FX activation peptide 12-mer FDLLDFNQTQPE (SEQ ID NO:725) (human)
# T2 peptide: FDLLDFNQTQPE-biotin
# T3: FX activation peptide 12-mer DAADLDPTENPF (SEQ ID NO:714) (human)
# T3 peptide: DAADLDPTENPF-biotin
# T4: FX activation peptide 12-mer TENPFDLLDFNQ (SEQ ID NO:721) (human)
# T4 peptide: TENPFDLLDFNQ-biotin
# T5: FX activation peptide 12-mer DLLDFNQTQPER (SEQ ID NO:726) (human)
# T5 peptide: DLLDFNQTQPER-biotin
# T6: FX activation peptide 12-mer TWKPYDAADLDP (SEQ ID NO:709) (human)
# T6 peptide: TWKPYDAADLDP-biotin
# T7: FX activation peptide 12-mer TQPERGDNNLTR (SEQ ID NO:733) (human)
# T7 peptide: TQPERGDNNLTR-biotin
# T8: FX activation peptide 12-mer QTQPERGDNNLT (SEQ ID NO:732) (human)
# T8 peptide: QTQPERGDNNLT-biotin
# T9: FX activation peptide 12-mer KPYDAADLDPTE (SEQ ID NO:711) (human)
# T9 peptide: KPYDAADLDPTE-biotin
# T10: FX activation peptide 12-mer PTENPFDLLDFN (SEQ ID NO:720) (human)
# T10 peptide: PTENPFDLLDFN-biotin
# T11: FX activation peptide 12-mer ITWKPYDAADLD (SEQ ID NO:708) (human)
# T11 peptide: ITWKPYDAADLD-biotin
# T12: FX activation peptide 12-mer FNQTQPERGDNN (SEQ ID NO:730) (human)
# T12 peptide: FNQTQPERGDNN-biotin
# T13: FX activation peptide 12-mer TSSSGEAPDSIT (SEQ ID NO:698) (human)
# T13 peptide: TSSSGEAPDSIT-biotin
# T14: FX activation peptide 12-mer SVAQATSSSGEA (SEQ ID NO:693) (human)
# T14 peptide: SVAQATSSSGEA-biotin
# T15: FX activation peptide 12-mer VAQATSSSGEAP (SEQ ID NO:694) (human)
# T15 peptide: VAQATSSSGEAP-biotin
# T16: FX activation peptide 12-mer AADLDPTENPFD (SEQ ID NO:715) (human)
# T16 peptide: AADLDPTENPFD-biotin
# T17: FX activation peptide 12-mer SITWKPYDAADL (SEQ ID NO:707) (human)
# T17 peptide: SITWKPYDAADL-biotin
# T18: FX activation peptide 12-mer NPFDLLDFNQTQ (SEQ ID NO:723) (human)
# T18 peptide: NPFDLLDFNQTQ-biotin
# T19: FX activation peptide 12-mer GEAPDSITWKPY (SEQ ID NO:702) (human)
# T19 peptide: GEAPDSITWKPY-biotin
# Experiments:
# Assay in all cases: ELISA, biotinylated 12-mer peptide on streptavidin, 2 ug/mL FLAG-tagged VHH, anti-FLAG-HRP
# [1] = target: T1, FX activation peptide 12-mer … (SEQ ID NO:727) (human)
# [2] = target: T2, FX activation peptide 12-mer …
# Protocol: (§1) To determine whether the binding epitope of the anti-FX VHH polypeptide designated “cmpd #1” are located inside the activation peptide (AP) of human FX (SEQ ID NO:2), an ELISA assay was setup. 41 unique 12-mer peptide fragments spanning the 52 residues of the activation peptide with one amino acid spacing were immobilized in microtiter plate wells followed by incubation with the VHH polypeptide to be tested, and detection of bound ligand was performed by addition of a secondary HRP-labelled antibody.
# (§2) The peptides were C-terminally conjugated to biotin and 50 μL of 1 μg/mL peptide solution was used for immobilization in discrete wells of the microtiter plate which was pre-coated with 1 μg/mL streptavidin. Each well was washed with washing buffer (10 mM Tris, 150 mM NaCl, 2.5 mM CaCl₂, 0.05% Tween 20, pH 8.60) followed by addition of 50 μL of 2 μg/mL FLAG-tagged anti-FX VHH polypeptide or IgG antibody to be tested. After 1 hour non-bound VHH polypeptide was washed off using washing buffer.
# (§3) Bound anti-FX activation peptide ligand was detected by first binding a HRP-labelled secondary antibody (for FLAG-tagged VHH polypeptide: Anti-FLAG mAb M2-Peroxidase (HRP) (Sigma Aldrich, US) for 1 hour, and then adding 100 μL TMB-1 ELISA substrate (Kem-En-Tec Diagnostics, Denmark).
# [3] = target: T3, FX activation peptide 12-mer …
# Protocol: as §1, §2, §3
# [4] = target: T4, FX activation peptide 12-mer …
# Protocol: as §1, §2, §3
# [5] = target: T5, FX activation peptide 12-mer …
# Protocol: as §1, §2, §3
# [6] = target: T6, FX activation peptide 12-mer …
# Protocol: as §1, §2, §3
# [7] = target: T7, FX activation peptide 12-mer …
# Protocol: as §1, §2, §3
# [8] = target: T8, FX activation peptide 12-mer …
# Protocol: as §1, §2, §3
# [9] = target: T9, FX activation peptide 12-mer …
# Protocol: as §1, §2, §3
# [10] = target: T10, FX activation peptide 12-mer …
# Protocol: as §1, §2, §3
# [11] = target: T11, FX activation peptide 12-mer …
# Protocol: as §1, §2, §3
# [12] = target: T12, FX activation peptide 12-mer …
# Protocol: as §1, §2, §3
# [13] = target: T13, FX activation peptide 12-mer …
# Protocol: as §1, §2, §3
# [14] = target: T14, FX activation peptide 12-mer …
# Protocol: as §1, §2, §3
# [15] = target: T15, FX activation peptide 12-mer …
# Protocol: as §1, §2, §3
# [16] = target: T16, FX activation peptide 12-mer …
# Protocol: as §1, §2, §3
# [17] = target: T17, FX activation peptide 12-mer …
# Protocol: as §1, §2, §3
# [18] = target: T18, FX activation peptide 12-mer …
# Protocol: as §1, §2, §3
# [19] = target: T19, FX activation peptide 12-mer …
# Protocol: as §1, §2, §3
binder,measurement,setting,value
"Cmpd #1 (monovalent anti-FX VHH polypeptide, VHH-1.1) (VHH, no protractor; FLAG-tagged in the peptide ELISA) VHH: EVQLVESGGGLVQPGGSLRLSCAASGSIGAFDAMGWYRQAPGKQRELVAGIMVSRGNTNYTDSVKGRFTISRDNAKNTVYLQMNSLKPEDTAVYYCKAVKRPGPGYLEVWGQGTLVTVSS",ELISA signal normalized relative to the background signal (fold of background),[1],1.88
same,ELISA signal normalized relative to the background signal,[2],4.38 fold of background
same,ELISA signal normalized relative to the background signal,[3],0.88 fold of background
same,ELISA signal normalized relative to the background signal,[4],4.84 fold of background
same,ELISA signal normalized relative to the background signal,[5],3.08 fold of background
same,ELISA signal normalized relative to the background signal,[6],1.13 fold of background
same,ELISA signal normalized relative to the background signal,[7],1.05 fold of background
same,ELISA signal normalized relative to the background signal,[8],0.88 fold of background
same,ELISA signal normalized relative to the background signal,[9],0.8 fold of background
same,ELISA signal normalized relative to the background signal,[10],4.58 fold of background
same,ELISA signal normalized relative to the background signal,[11],1.1 fold of background
same,ELISA signal normalized relative to the background signal,[12],1 fold of background
same,ELISA signal normalized relative to the background signal,[13],0.77 fold of background
same,ELISA signal normalized relative to the background signal,[14],0.96 fold of background
same,ELISA signal normalized relative to the background signal,[15],1.02 fold of background
same,ELISA signal normalized relative to the background signal,[16],0.88 fold of background
same,ELISA signal normalized relative to the background signal,[17],1.08 fold of background
same,ELISA signal normalized relative to the background signal,[18],3.13 fold of background
same,ELISA signal normalized relative to the background signal,[19],0.93 fold of background
